The data set has as its target T1, MGF (mammary gland factor, STAT5), native from lactating mammary gland (Ovis aries, UniProt P42231 SEQ:1-794).
T1 chain: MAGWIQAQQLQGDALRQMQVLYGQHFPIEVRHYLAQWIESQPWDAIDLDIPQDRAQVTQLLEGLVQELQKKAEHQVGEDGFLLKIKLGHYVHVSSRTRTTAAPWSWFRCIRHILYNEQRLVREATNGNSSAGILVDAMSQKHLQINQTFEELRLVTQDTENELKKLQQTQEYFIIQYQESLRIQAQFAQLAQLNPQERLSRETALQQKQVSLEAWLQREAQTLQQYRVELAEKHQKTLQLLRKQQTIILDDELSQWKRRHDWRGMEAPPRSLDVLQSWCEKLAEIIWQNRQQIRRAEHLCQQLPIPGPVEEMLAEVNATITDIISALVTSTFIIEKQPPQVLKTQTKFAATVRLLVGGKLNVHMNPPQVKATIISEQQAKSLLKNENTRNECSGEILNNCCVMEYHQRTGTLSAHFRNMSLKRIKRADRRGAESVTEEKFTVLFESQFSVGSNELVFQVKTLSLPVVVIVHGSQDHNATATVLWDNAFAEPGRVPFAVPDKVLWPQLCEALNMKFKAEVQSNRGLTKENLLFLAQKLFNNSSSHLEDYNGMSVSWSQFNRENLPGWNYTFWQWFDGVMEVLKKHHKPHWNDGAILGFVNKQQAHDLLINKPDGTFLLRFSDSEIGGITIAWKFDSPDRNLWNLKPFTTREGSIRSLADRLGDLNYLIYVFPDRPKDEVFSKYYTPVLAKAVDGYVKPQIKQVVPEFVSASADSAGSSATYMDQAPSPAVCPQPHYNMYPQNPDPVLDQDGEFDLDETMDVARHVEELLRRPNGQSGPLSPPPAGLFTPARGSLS
The data set is described as follows: EMSA; binds more efficiently than rat site; also used for DNA affinity column, eluted at 600 mM NaCl; binding abolished by tyrosine phosphatase PTP1B, not by PP1C or. The conditions noted are these: tags: none; 84 and 92 kDa bands, tyrosine phosphorylated.

B1: bovine beta-casein MGF site (dsDNA)
DNA 1: AGATTTCTAGGAATTCAATCC
DNA 2: GGATTGAATTCCTAGAAATCT
As to B1, the binding result is listed as “binds”.
